This is an account of results in patent US9540613B2, “Methods for producing insulin-secreting beta cells from human pluripotent stem cells” (Wisconsin Alumni Research Foundation, priority 2013, dated 2017).

Assay [1] has as its system human pluripotent stem cells. The experiment in a line: Replacement of FGF2 by other FGFs in Stage 1 differentiation. Type of assay: cell-based. Particulars: FGF used in Stage 1 medium. The text has this:
In some embodiments, the FGF used in Stage 1 is selected from the group consisting of FGF2, FGF4, FGF7, FGF10 and the mixtures thereof. […] Thus, one would use any one of FGF4, FGF7 and FGF10 to replace FGF2 in Stage 1. One may also use mixtures of two or more of FGF2, FGF4, FGF7 and FGF10 in this stage. In a specific embodiment, the FGF in Stage 1 is FGF2.

The test system of assay [2] is insulin protein expression. Description: Immunohistochemistry of insulin protein expression after Stage 4. Particulars: addition of Noggin at Stage 4. The format is cell-based, human. How it is done:
Immunohistochemistry was performed at the end of Stage 4 (Day 18) to examine protein expression of Insulin and NKX6.1.

Assay [3] relates to PDX1 and insulin protein expression in H1 cells. The experiment in a line: Flow cytometry of PDX1 and insulin protein expression at end of Stage 4. The format is cell-based, human. The source says:
To quantify insulin and PDX1 protein expression we optimized a flow cytometry assay. […] The INS-1 cell line is an immortalized pancreatic beta cell line that expresses both PDX1 and insulin. On the bottom left, is our negative control, unstained H1 cells differentiated for 18 days. On the right, is H1 cells differentiated by the current protocol through day 18 stained with Insulin-PB and PDX1-AF488. […] Only 8-11% of the cells are PDX1 and insulin double positive.
To examine protein expression we collected cells at the end of Stage 4 and examined them by flow cytometry.
Thus, the effect of Noggin is context dependent and synergistic with nicotinamide and Exendin-4.
Background: In flow cytometry, cells or beads pass a laser one at a time.

Assay [4] has as its system PDX1, NKX6.1, Neurogenin 3 and insulin gene expression. The experiment in a line: QPCR gene expression of endoderm and pancreatic markers in differentiated cells. The format is cell-based, human. How it is done:
QPCR was performed at the end of Stage 4 ([…] Day 18) to examine gene expression of PDX1, a marker of pancreatic epithelium and progenitor cells, insulin, a marker of beta cells, and Sox9 which is expressed in the developing pancreatic epithelium. The gene expression is compared to undifferentiated cells collected at Day 0 and β-Actin is the internal control. […] Human Fetal Pancreas (HFP), gestation 14-20 weeks, is represented as a positive control.
In FIG. 19, the gene expression is compared to undifferentiated cells collected at Day 0 and B-Actin is the internal control. On the y axis is delta CT (instead of fold change), thus, the lower the value the greater the gene expression.
First, alterations at Stage 3 and 4 altered gene expression minimally. […] On the y axis is delta CT (instead of fold change), thus, the lower the value the greater the gene expression. […] In contrast the addition of Noggin at Stage 4, decreased PDX1 and NKX6.1 gene expression and increased Neurogenin 3 expression. There was no difference in insulin gene expression following the addition of Noggin to Stage 4.

B1: FGF4: fibroblast growth factor family ligand (protein, UniProt P08620 31-206, looked up)
Fibroblast growth factor 4: APTAPNGTLEAELERRWESLVALSLARLPVAAQPKEAAVQSGAGDYLLGIKRLRRLYCNVGIGFHLQALPDGRIGGAHADTRDSLLELSPVERGVVSIFGVASRFFVAMSSKGKLYGSPFFTDECTFKEILLPNNYNAYESYKYPGMFIALSKNGKTKKGNRVSPTMKVTHFLPRL
As to B1, in assay [1], the “effects in Stage 1 relative to FGF2” value was “comparable to FGF2”.

B2: FGF10: fibroblast growth factor family ligand (protein, UniProt O15520 38-208, looked up)
Fibroblast growth factor 10: QALGQDMVSPEATNSSSSSFSSPSSAGRHVRSYNHLQGDVRWRKLFSFTKYFLKIEKNGKVSGTKKENCPYSILEITSVEIGVVAVKAINSNYYLAMNKKGKLYGSKEFNNDCKLKERIEENGYNTYASFNWQHNGRQMYVALNGKGAPRRGQKTRRKNTSAHFLPMVVHS
Turning to B2, in assay [1], the “effects in Stage 1 relative to FGF2” value is listed as “comparable to FGF2”.

B3: FGF7: fibroblast growth factor 7 (protein, UniProt P21781 32-194, looked up)
Fibroblast growth factor 7: CNDMTPEQMATNVNCSSPERHTRSYDYMEGGDIRVRRLFCRTQWYLRIDKRGKVKGTQEMKNNYNIMEIRTVAVGIVAIKGVESEFYLAMNKEGKLYAKKECNEDCNFKELILENHYNTYASAKWTHNGGEMFVALNQKGIPVRGKKTKKEQKTAHFLPMAIT
As to B3, the “effects in Stage 1 relative to FGF2” value in assay [1] is “comparable to FGF2”.

B4: Noggin: a protein which in humans is encoded by the NOG gene; inhibits TGF-β signal transduction (protein, UniProt Q13253 28-232, looked up)
Noggin: QHYLHIRPAPSDNLPLVDLIEHPDPIFDPKEKDLNETLLRSLLGGHYDPGFMATSPPEDRPGGGGGAAGGAEDLAELDQLLRQRPSGAMPSEIKGLEFSEGLAQGKKQRLSKKLRRKLQMWLWSQTFCPVLYAWNDLGSRFWPRYVKVGSCFSKRSCSVPEGMVCKPSKSVHLTVLRWRCQRRGGQRCGWIPIQYPIISECKCSC
On to B4, for which, in assay [2], the “clustering and insulin protein expression” value is “increased clustering and insulin protein expression”; the “hormonal status of insulin-expressing cells” value is “a majority of those cells are still polyhormonal”. Besides, the double positive cells result in assay [3] (Noggin in the context of ITSFINE) is “increases double positive cells”. Moreover, in assay [3] (addition of Noggin at Stage 4 (ITSFINE)), the insulin expression entry is “increases insulin expression”. Further, the double positive cells result in assay [3] (addition of Noggin in the absence of nicotinamide and Exendin-4 (ITSFI)) is “does not further increase the double positive cells”. Moreover, in assay [4] (addition of Noggin at Stage 4), the NKX6.1 gene expression result is “decreased”, the “Neurogenin 3 expression” value is on record as “increased” and the PDX1 gene expression entry was “decreased”. The insulin gene expression entry in assay [4] (addition of Noggin to Stage 4) was “no difference”.
